The test system of one data set is MIA. Description: Inhibition of MIA expression by antisense sequences. Type of data set: cell-based, human.
Data set [1] has as its system human MIA-secreting melanoma as well as breast cancer cell lines. Description: Tumor invasion and metastasis in scid-mice and nude mice. To be noted: transfecting vector expressing the antisense sequence. The format is in vivo. The text has this:
Inhibition of endogenous MIA synthesis by a transfecting vector expressing the antisense sequence (SEQ. ID No 9): […]

A further data set concerns malignant melanoma cell. The settings on record: cited from earlier work.
The subject of data set [2] is Peripheral Blood Mononuclear Cells (PBMCs). To be noted: addition of MIA; cited from earlier work.
Data set [3] relates to LAK cytotoxicity against malignant glioma cell lines (HTZ-17, -243, -374, -375). Description: CARE-LASS calcein-release assay, effector cells pretreated with MIA. The format is cell-based. The text has this: To study the effects of MIA upon cytotoxic T-lymphocytes (CTL) and Lymphokine Activated Killer cells (LAK cells) a CARE-LASS assay has been employed (Lichtenfels, R., Biddison, W. E., Schulz, H., Vogt, A. B. and R. Martin. CARE-LASS (calcein-release assay), an improved fluorescence based test system to measure cytotoxic lymphocyte activity J. Immunol. Meth., 172: 227-239, 1994). Briefly, glioma cells were harvested, washed in 5% FCS/PBS solution and resuspended at 10 Mio cells/ml in 5% FCS/FBS. Calcein-AM was added to a final concentration of 25 μM (Molecular Probes, USA). The cells were labeled for 30 min at 37° C. then washed twice in 5%/FCS/PBS, adjusted to 1 Mio cells/ml and loaded into 96-well U-shaped microtiter plates at the final concentration of 0.1 Mio/100 μL/1 well (Nunc, Denmark). To measure cytotoxic activity of effector cells pretreated with MIA (f.c. 500 ng/ml), wells were loaded with 100 μL of CTL and LAK cells to produce the desired E:T ratios of […]. […] After incubating the plate for 4 h at 37° C. the supernatants (50 μL) were transferred into new wells and measured using an automated fluorescence scanner (Titertek Fluoroskan II, Germany). The percent cytotoxicity was determined from the following equation: [formula]

The next data set has as its system cells. To be noted: cited from earlier work.

Take “MIA-2842-W: MIA antisense sequence TGC CTC CCC AGA AG (antisense TGCCTCCCCAGAAG; all phosphorothioate, sugars by position and methylation of C not given here; listed as Homo sapiens)”: the “inhibiting MIA expression” value in the data set with MIA was “Active”.

On to “MIA-0202-N: MIA antisense sequence ATG GTG AGG AAT CG”, for which the “inhibiting MIA expression” value with MIA is “Less active or inactive”.

As to “MIA-1278-W: MIA antisense sequence CTT GGA GAA GAG ATA C”, the “inhibiting MIA expression” value in the data set on MIA is given as “Active”.

As to “MIA-2841-W: MIA antisense sequence GTC AGG AAT CGG GAG”, the “inhibiting MIA expression” value in the data set with MIA is recorded as “Active”.

As to “MIA-1277-N: MIA antisense sequence GAA TGG TCA GGA ATG G”, the “inhibiting MIA expression” value with MIA is “Less active or inactive”.

B1: SEQ. ID No 9: long MIA antisense sequence, or parts of it, expressed from a transfecting vector (nucleic acid, listed as Homo sapiens)
antisense: GGCAGGGCCAGCGGTAGGCTGAGCTCACTGGCAGTAGAAATCCCATTTGTCTGTCTTCACATCGACTTTGCCAGGTTTCAGGGTCTGGTCCTCTCGGACAATGCTACTGGGGAAATAGCCCAGGCGAGCAGCCAGATCTCCATAGTAATCTCCCTGAACGCTGCCTCCCCAGAAGAGCCGCCCACGGCCCTTCAGCTTGGAGAAGACATACACCACTTGGCCCCGGTGAATGGTCAGGAATCGGCAGTCGGGGGCCATGTAGTCCTGAAGGGCCACAGCCATGGAGATAGGGTGGCTGCACTCCTGGTCCGCACACAGCTTCCGGTCAGCCAGCTTGGGCATAGGACCACCCCTGACACCAGGTCCGGAGAAGGCAGACAGCAAGATGATGACACCAAGGCACACCAGGGACCGGGCCATCGTGGACTGTGAGCAAGAGAGTGAGCAAGGGGGTGCTGG
modifications: expressed from transfecting vector
For the molecule B1, the “tumor invasion and metastasis” value in data set [1] is listed as “strongly reduced”.

B2: MIA: polypeptide Melanoma Inhibitory Activity; 131-amino acid precursor processed into a mature 107-amino acid protein (protein, UniProt Q16674 25-131, looked up)
Melanoma-derived growth …: GPMPKLADRKLCADQECSHPISMAVALQDYMAPDCRFLTIHRGQVVYVFSKLKGRGRLFWGGSVQGDYYGDLAARLGYFPSSIVREDQTLKPGKVDVKTDKWDFYCQ
Turning to B2, the “tumor cell growth inhibition” value with malignant melanoma cell is reported as “potent tumor cell growth inhibitor”. The “IL-2-stimulated PBMC proliferation” value in data set [2] is given as “only slightly inhibited”. Further, the “inhibition of autologous and allogenic LAK cytotoxicity compared to controls” value in data set [3] (MIA f.c. 500 ng/ml, E:T ratios 1:10 and 1:100, 4 h) is “up to 40%”. The “Allogenic anti-glioma LAK immune response” value in data set [3] (exogenous addition of MIA) was “strongly inhibited”. Besides, in the data set on cells, the “inhibits cell proliferation (cell cycle effect)” value is “prolonging of the S-Phase and arrest of the cells in the G2 compartment”.
